Molecular target: T1, PP1c (Homo sapiens, UniProt P62136)
T1 construct: His tag with TEV site (N, cleaved yes); intein (pTXB1) (C, cleaved yes); made in house; host or cells: E. coli BL21Star(DE3)pRARE
Assay: Phosphopeptide library dephosphorylation followed by mass spectrometry (PLDMS), PP1c
Format: biochemical
Details: all libraries, 25 nM PP1c, 100 µM library, 2 min, 25 °C, pH 7.5; library distribution 60% Ser to 40% Thr
Text: In order to determine phosphatase specificity on the phosphopeptide level, we developed an in vitro phosphopeptide library dephosphorylation followed by mass spectrometry approach (PLDMS, Fig. 1a; see the methods for details). In this approach, phosphopeptide libraries would be treated with PP1, PP2A, or left untreated, purified, and analyzed by LC-MS/MS measurements. In the first step, design, synthesis, and validation of phosphopeptide libraries were required. The phosphopeptide libraries were designed to yield an even distribution of amino acids in the different randomized positions and to give high coupling efficiency during synthesis, thus reducing the number of by-products. […]
The individual libraries were incubated with recombinant PP1c or PP2Ac (Supplementary Fig. 1a) and the reaction was stopped by shifting the pH from 7.5 to 3 when 30–50% of the library was dephosphorylated, depending on phosphatase activity (see the methods for details, Supplementary Fig. 1b). Peptides were then separated from the recombinant protein by size-exclusion chromatography (SEC) (Supplementary Fig. 1c) and analyzed by LC-MS/MS (Fig. 1a). […]
For LC-MS analysis, the treated/ctrl peptide libraries were purified by SEC. […] A 0.1 M ammonium acetate buffer (pH 5) was used throughout the column equilibration and purification and the elution profile was recorded at 280 nm. […]

T1 sequence (P62136 whole entry): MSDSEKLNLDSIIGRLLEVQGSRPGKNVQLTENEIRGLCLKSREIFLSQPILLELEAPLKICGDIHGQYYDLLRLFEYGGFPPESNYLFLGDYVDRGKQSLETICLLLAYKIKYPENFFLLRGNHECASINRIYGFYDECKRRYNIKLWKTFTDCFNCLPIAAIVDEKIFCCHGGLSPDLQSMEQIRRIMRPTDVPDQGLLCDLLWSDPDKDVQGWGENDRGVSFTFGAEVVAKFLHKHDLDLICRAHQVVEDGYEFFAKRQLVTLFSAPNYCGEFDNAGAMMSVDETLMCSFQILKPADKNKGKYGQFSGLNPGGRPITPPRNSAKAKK

pThr share of all sites dephosphorylated by PP1c: 73%
Substance: PP1c: recombinant catalytic subunit of PP1

From publication PMC7367873, “Dissecting the sequence determinants for dephosphorylation by the catalytic subunits of phosphatases PP1 and PP2A” (Nature Communications, 2020)
